# Test results as given in the DeepSol protein solubility set.
# Test: soluble on expression in E. coli; label from the status in PepcDB or PDB records
row,Sequence,soluble on expression in E. coli
1,RYSHSLGVYELLRRILNTPAFAPIDENKKQTVLVAGLLHDIGHAPHSHAFEIYFAKAPNFKKELFIHEEVTTLFVNSEPIKSILKANQIDPKLVAALIDENKELKPSNYWMRQLISSDLDADRMDYLLRD,not soluble
2,SNAMIVGIGIDIIELNRIEKMLDGKLKFMERILTENERNVAKGLKGSRLTEFVAGRFAAKEAYSKAVGTGIGKEVSFLDIEVRNDDRGKPILITSTEHIVHLSISHSKEFAVAQVVLESSSS,soluble
3,MNYTKFDVKNWVRREHFEFYRHRLPCGFSLTSKIDITTLKKSLDDSAYKFYPVMIYLIAQAVNQFDELRMAIKDDELIVWDSVDPCFTVFHQETETFSALSCPYSSDIDQFMVNYLSVMERYKSDTKLFPQGVTPENHLFISALPWVNFDSFNLNVANFTDFFAPVITMAKYQQEGDRLLLPLSVQVHHAVCDGFHVARFINRLQELCNSKLK,soluble
4,VTDLAGTTRLLRAQGVTAPAGFRAAGVAAGIKASGALDLALVFNEGPDYAAAGVFTRNQVKAAPVLWTQQVLTTGRLRAVILNSGGANACTGPAGFADTHATAEAVAAALSDWGTETGAIEVAVCSTGLIGDRLPMDKLLAGVAHVVHEMHGGLVGGDEAAHAIMTTDNVPKQVALHHHDNWTVGGMAKGAGMLAPSLA,soluble
5,MSLMYPLVLDLAADGIPVTVTCRVLGFSTQAFYKWRKAPLTQRDWDDAHLINAARDIHADDPAFGYRFIADELPGRGITAGENRVARLCSQERIWSIFAKKRGLNRRSGPPVHDDLVERQFSAQAANQVWLTDITEHRTNEGKLYLCAIKDVYSNRIVGYSMDSRMKSSLAVAALDHAVALRSPVATIVHSDRGSQFRSRKFVRALSRNGLQGSMGRVGACGDNAAMESFFALLQRNVLDRKRWSTRAELRLAIVTWIERTYHRRRRQRALGRLTPIEFELLRTSVATAAEGHHHHHH,not soluble
6,MGSSHHHHHHMTLNQPEYFTKYENLHFHRDENGILEVRMHTNGSSLVFTGKTHREFPDAFYDISRDRDNRVVILTGSGDAWMAEIDFPSLGDVTNPREWDKTYWEGKKVLQNLLDIEVPVISAVNGAALLHSEYILTTDIILASENTVFQDMPHLNAGIVPGDGVHILWPLALGLYRGRYFLFTQEKLTAQQAYELNVVHEVLPQSKLMERAWEIARTLAKQPTLNLRYTRVALTQRLKRLVNEGIGYGLALEGITATDLRNN,soluble
7,MVMMSKQLTAQAPVDPIVLGKMGSSYGIRGWLRVFSSTEDAESIFDYQPWFIQKAGQWQQVQLESWKHHNQDMIIKLKGVDDRDAANLLTNCEIVVDSSQLPQLEEGDYYWKDLMGCQVVTTEGYDLGKVVDMMETGSNDVLVIKANLKDAFGIKERLVPFLDGQVIKKVDLTTRSIEVDWDPGFLEHHHHHH,soluble
8,MIQVENLTKTINNQMILEDISIDIEKGKLTSLIGPNGAGKSTLLSAICRLIRFENGEVKIDGQLMSDYKNNDLSKKISILKQTNHTEMNITVEQLVNFGRFPYSKGRLTKEDHDIVNDALDLLQLQDIRNRNIKSLSGGQRQRAYIAMTIAQDTEYILLDEPLNNLDMKHAVQIMQTLKMLAHKMNKAIVIVLHDINFASCYSDQIVALKNGQLVKSDLKDNVIQSSVLSDLYDMNIQIEHIRNQRICLYFKD,not soluble
9,MSDMNNPADDNNGAMDDLWAEALSEQKSTSEKSAADAVFQQFGGGDVSGTLQDIDLIMDIPVKLTVELGRTRMTIKELLRLTQGSVVALDGLAGEPLDILINGYLIAQGEVVVVADKYGVRITDIITPSERMRRLSR,not soluble
10,MDVTFLTKNVQINGTQFKILLQNGQGECALIALANVLLISPAHARYAQEISRLVRGKETVTLNELVQTLADMGVQNPNGTDVDKQQLLQILPQLYSGLNINPEFNGSFEDGVEMSIFRLYNVGIVHGWIIDGDNDPNSYEHVSKYSYMGAQKVLVQSYEIQKNNAQFENSEQIQSDAPYLKSFLARSATQLTEYGLTHLREILVERSYAVLFRNDHFCTLYKNNGELFTLVTDPTYRNRKDINWQSLKSVNGSQDSYYTGNFIPTSLERTETTATGQNESYISNPFSDQNTGHVTSNQVNSGASGVQQIEDDEELARRLQEQEDMRAANNMQNGYANNGRNHQRERFERPEKNSKKNKFLPFNGSNKEKKRDKLKKNCVIM,soluble
11,MNNGTVKWFNAEKGFGFIEQENGGDVFVHFSGIASDGYKTLEEGQKVTFEITEGQRGDQAVNVQTV,not soluble
12,MSLMKSSPLVRQASTEKESTKSENLTEYLIEAIVEGQLAPGSKISEPELAKQFQVSRGPLREALMRVEGLGLIERIPHIGARVIQLSPTKLVELYAVREALEGMAARLAARNITEIELAGLESLLSTHSTHIDQVEGASYFHQQGDFDFHYRIIQACRNQQLIGLLCDELYHLLRMYRYQSPRSHSRPVEALEEHKFILRAIRQRDEELAEMLMRRHISRSRQLIEQQIMLDAQQQGEGHHHHHH,soluble
13,MNGKEIGEKNSKKYSFEVDSRSVYKCVQCGTCRSVCPVFDVVGWESANTRGRMLIIKSLLEGRPPSEDVLPSLASCTTCGICAAKCPAGANPPEVVEAARAQLVKCGVTTEAQLEHHHHHH,not soluble
14,MKINRHILDNGLRLVHSQDESTQMVALNVLYNVGARDEHPEHTGFAHLFEHLMFGGSVNIPDYDMPLQLAGGENNAWTNNDITNYYLTVPRQNVETGFWLESDRMLSLDFSERSLEVQRGVVMEEFKQRCLNQPYGDVGHLLRPLAYRAHTYQWPTIGKDLSHIANATLEEVKAFFFRFYAPNNAVLAVTGNISFEEAVALTEKWFGPIPRREVPQRNLPQEPEQTEERRLTVERNVPLDSLFMAYHMCSHDHPDYYAFDILSDLLSNGRSSRLNQRLVQQKQLFSSIDAYISGSVDAGLFHISGKPAAGVSLEQAEAAVREELERLQQEPVDEQELEKVKNKFESTQIFGNINYLNVATNLAWFELLGRAEDMEKEVERYRAVTAGQLQKVAQSAFRKENGVILYYKKQIS,not soluble
15,MKEDLLDIVCCPLDKHDLTLDADATEDGEVMAGTLTCTDCGETYPIEDGIPNLLPPDMRDDAESASALEHHHHHH,not soluble
16,MKVIEVTHPIQSNQFITENVAMAFGFFDGMHRGHDKVFQVLDEKAKEHQLKKAVMTFDPHPSVVLNPERKRTTYLTPLSDKLEMIAEHGIDYCIVINFSSRFANVTSDDFIKNYIINNHVKEVIAGFDFTFGKFGKGNMTVLQESKAFNTTIVGKQEMDSEKISTTAIRQALTDGHLQKANDELGYIYRIKGTVVQGEKRGRTIGFPTANVQPSDDYVLPKKGVYAVSMEIGPESKLHRGVANVGVKPTFHDPTRAELVIEVNIFDFNENIYGERVTVYWHHFLRPEVKFDGIDPLVKQMNEDKAQAKHLLSIDFDDDISYNI,not soluble
17,SLVASGYPLSQTFGHGDIHFLPPELADARTSKIKVPFQSLLCDGEDEFRKGARYVLREGVDFIKIFVTGGVASQKDKPEFPQMTRGEIAAVVEEARRAGRLVHAHAESSEGYINAVEEGVKTLAHGMDLNQDAINLSVEKDVTLIPTLSIVDVALKFGPSNNLPEWMLEKLKEVHEIHAESIKRAYRERVRLATGTDFFIGAKEVQLYGLNSLEIKLLVGLGVKPMDALKAVIKEGEIVKQS,not soluble
18,MKIPDLTNYEHLIGGLCGGVTSTVVCHPFDLLKIRFSANEGSSLRPQYSSYADAVRKIVRVEGVRGLYQGWTPSLIGASLSWGLYFQWYNSLRTKIYENFSTGSKLANNLISGCISGSAIMCITNPIWLTKTRLCLQYENQQSKKYAGMMDCLKKTVKQEGFFGLYRGFVTGVIGTTHGAVQIAAYSWIIDKRCQSQGLPKDSFLSQTDYVIASSTSKVLATTITFPYQVLRTRMQDHNTDSRGVWKTTLKTIHNEGIGGLWKGCLIANVRQLPAAVVTFLTYENVKRLVGMTKQI,not soluble
19,MLFNLLGKPLKICGCSPRTGWYLDGYCKTDQSDLGNHSICSVVTDTFLKYTKSQGNNLIDPNLLMEFPGLKAGDHWCLCAERWEQARIDGVAPPIIIESTNLSATQVIPLNILKSFAFEII,not soluble
20,EAEERQRNMINKTHVGLLLIDGQGRIEEINPMAKRYFSLSDSMVRQLQAWSLFDTGNPNATVPLLLKNLTEHQELADITNVETVARRSDGSLFPVLFSLIAVSWKDRRHYLVTLIDIS,not soluble
21,SERGDQPKRTRNENIFNCLYKNPEATFKLICFPWMGGGSTHFAKWGQDTHDLLEVHSLRLPGRESRVEEPLENDISQLVDEVVCALQPVIQDKPFAFFGHSMGSYIAFRTALGLKENNQPEPLHLFLSSATPVHSKAWHRIPKDDELSEEQISHYLMEFGGTPKHFAEAKEFVKQCSPIIRADLNIVRSCTSNVPSKAVLSCDLTCFVGSEDIAKDMEAWKDVTSGNAKIYQLPGGHFYLLDPANEKLIKNYIIKCLEVSSISNF,soluble
22,MDGSLSRPAVLDRAARQKRGTMARPQSKKKQTQVVRRPRRRGRLVPPGRLIAGRDFPEFLQQAVLLSGSLRQAARKLRVSYSTLRGWFGRRCDEPPEGGGDLLAEHAAAIRAELDAAAERLAMVRGQLDALERGE,not soluble
23,KTEIHGDSTKATLEEGQQLTLTFISTKLDVAVGSCHSLVANFLDGFLKFQTGSNSAFDVVEVEEPAGPAVLTIGLGHKGRLAVVLDYTRLNAALGSAAYVVEDSGCSSSEEVSFQGVGSGATLVVTTLGESPTAVSA,soluble
24,AIANFNDAKNEILQVLSKTERQHLPKLLEWIKTSDDLDDILVDNQSVILHSIAEDLRACLPMEAMAPSETLAMQKTQQKAHPTVHVDAFLYDDETVDSLCEEGKMSRTYCLNCGSHRTAPLEFISHSFSIPELQFLFHNVLPELTGKLVLDVGSRLGAVLFGGYLYSAASQLVGVEMSSEFVKLQSMAVEKYGFSDRIQVIHADIRSQIALVQKADVLIMNNVFEYFMEPRDQMQAWLYISQNFRKKGALLVTVPSIQEALGLLQDAAFLETLSLSQWIEEIPVDYSVYLKNDTDPDSLKQIHLYRVL,soluble
25,MIKEFCAENLTLLPTLDAGQISRVELCDNLAVGGTTPSYGVIKEACQLLHDKKISVATMIRPRGGDFVYNDLELKAMEEDILKAVEAGSDALVLGLLTTENQLDTDAIEQLLPATQGLPLVFHMAFDRIPTDHQHQALDQLIDYGFVRVLTHGSPEATPITDNVEQLKSLVTYANKRIEIMIGGGITAENCQSLSQLTGTAIVHGTKII,not soluble
26,MIFYFSGTGNSKWIAEQIAKAQNEVLVFMPNAIRDGIEEFVLADDEKVGFVFPVYSWGPPLSVLRFLDWITLSNYHSQYVFFVCSCGDDTGLTEELFRRALSRKGMECNAGFSVAMPNNYVLLPGFDVDKKELEKKKLDEAVGRVEEINDSITGKKIGFHCNEGSFPWFKTKVLNPLFNRFMTSAKPFYATDDCIGCKRCERICPVGNVVMIGWRPVWGMDCTSCLACYHVCPKHAVQYGRRTKRKGQYLNPNVSISHEAAAQLEHHHHHH,not soluble
27,MAHHHHHHMRCCSTALRTGRRGPGGWTEPRLQQATSTDFMRDSTGTGGDNNNNNNNDGGKGPSSALKRHFNVNDFSMIERQQMTLTKLMRITMDATFKPKDPDSRTYGGDGATQRAALREELKTMDSRIVPFAHEEILNDYLKNIVELSGPSGQRYDREMLRGRLVGLLFFTETDRSLAFMRLLREFHQRHRRDFVVVAISLGGKEMMDITRQHGFYHCSHRDGATWVQRDTGLMVRPWTPLPRLIVVNGTSGEEITSSGVTAVKAHPNTCFEKWKNGEEGCDWWDYIKTFYM,soluble
